22 molecules from patent US20190359719A1 (published 2019) can be followed below.

The chains are these.
T1: recombinant c-Met extracellular domain (R&D Systems cat#358-MT-100/CF) (UniProt P08581 25-932)
T1 chain: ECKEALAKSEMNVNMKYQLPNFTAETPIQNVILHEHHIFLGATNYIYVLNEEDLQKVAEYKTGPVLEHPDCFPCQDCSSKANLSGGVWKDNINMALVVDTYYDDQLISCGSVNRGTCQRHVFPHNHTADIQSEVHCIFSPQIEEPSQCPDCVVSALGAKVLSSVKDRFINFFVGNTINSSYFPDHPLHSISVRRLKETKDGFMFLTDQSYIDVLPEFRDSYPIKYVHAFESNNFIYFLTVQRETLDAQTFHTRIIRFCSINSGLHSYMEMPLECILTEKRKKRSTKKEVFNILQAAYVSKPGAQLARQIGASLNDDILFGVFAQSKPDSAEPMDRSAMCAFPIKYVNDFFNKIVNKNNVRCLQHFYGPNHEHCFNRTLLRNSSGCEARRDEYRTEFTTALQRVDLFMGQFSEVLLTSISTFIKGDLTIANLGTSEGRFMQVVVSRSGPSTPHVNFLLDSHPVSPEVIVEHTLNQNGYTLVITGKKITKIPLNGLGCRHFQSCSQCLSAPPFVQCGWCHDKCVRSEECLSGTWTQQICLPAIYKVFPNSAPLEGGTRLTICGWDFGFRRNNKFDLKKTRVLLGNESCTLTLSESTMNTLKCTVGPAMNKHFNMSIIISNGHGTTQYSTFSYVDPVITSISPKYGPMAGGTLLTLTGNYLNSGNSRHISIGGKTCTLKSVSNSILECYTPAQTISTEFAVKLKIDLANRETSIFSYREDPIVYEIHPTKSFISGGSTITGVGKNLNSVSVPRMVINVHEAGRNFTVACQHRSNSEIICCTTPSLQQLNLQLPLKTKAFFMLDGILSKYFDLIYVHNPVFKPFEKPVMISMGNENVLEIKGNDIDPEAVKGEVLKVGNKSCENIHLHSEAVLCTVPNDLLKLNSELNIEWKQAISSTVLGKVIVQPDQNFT

B1: E1 anti-c-Met antibody in IgG format (antibody, V domains shown)
VH: QVQLVQSGAEVKKPGASVKVSCKTSGYTFSGDYMHWVRQAPGQGLEWMGWINPNSGGTNYAQKFQGRVTMTRDTSISTAYMELSRLRSDDTAVYYCAREPGRDYYYYDGMDVWGQGTTVTVSS
VL: QSVVTQPPSVSGAPGQRVTISCTGSSSNIGAGYDVHWYQQLPGTVPKLLIYGNSNRPSGVPDRFSGSKSGTSASLAITGLQAEDEADYYCQSYDSSLSAYVFGTGTKVTVL
B2: H8 anti-c-Met antibody in IgG format (antibody, V domains shown)
VH: EVQLVQSGAEVKKPGASVKVSCKASGYTFSSYYMHWVRQAPGQGLEWMGWINPNSGNTGYAQKFQGRVTMTRNTSISTAYMELSSLRSEDTAVYYCARRGTTVSFDYWGQGTLVTVS
VL: QLVLTQSPSVSVAPGQRVTISCSGSNSNIGNNYVSWYHHLPGTAPKLLIYDNNKRPSGIPDRFSGSKSGTSATLGITGLQPGDEAHYYCGTWDSTLSAGVFGGGTKLTVL
B3: A8 (antibody, V domains shown)
VH: QITLKESGAEVKKPGSSVKVSCKASGGTFSSYGISWVRQAPGQGLEWMGGIIPMFGTANYAQKFQGRVTITADESTSTAYMELSSLRSEDTAVYYCARDEVAPDYYGSGPSYGMDVWGQGTMVTVSS
VL: SYELMQPASVSGSPGQSITISCTGTSSDVGGYDHVSWYQQHPGKAPKLMIYAVRNRPSGVPDRFSGSKSGNTASLTISGLQAEDEADYYCSSYTSSLTYVFGTGTKVTVL
B4: A1 anti-c-Met antibody in IgG format (antibody, V domains shown)
VH: QVQLQESGPGLVKPSQTLSLTCTVSGGSISSGGYYWSWIRQHPGKGLEWIGEINHSGSTNYNPSLKSRVTISVDTSKNQFSLKLSSVTAADTAVYYCARGRDGYDFDPWGQGTLVTVSS
VL: LPVLTQPASVSGSPGQSITISCTGTSSDVGGYNYVSWYQQHPGKAPKLMIYDVSDRPSGVSTRFSGSKSGNTASLTISGLQAEDEADYYCSSYRSSSALVVFGGGTKLTVL
B5: El-A10 (E1 derived anti-c-Met antibody) (antibody, V domains shown)
VH: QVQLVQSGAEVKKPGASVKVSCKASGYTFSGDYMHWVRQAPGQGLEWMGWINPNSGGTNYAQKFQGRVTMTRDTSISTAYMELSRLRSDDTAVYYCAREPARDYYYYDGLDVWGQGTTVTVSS
VL: B1 VL with T23L, S26A, Y33H, V45A, D94S
B6: El-A14 (E1 derived anti-c-Met antibody) (antibody, V domains shown)
VH: B1 VH with T24A, M34I, G101A, M110L
VL: B1 VL with T23I, Y33H, V45A, D94S
B7: El-A18 (E1 derived anti-c-Met antibody) (antibody, V domains shown)
VH: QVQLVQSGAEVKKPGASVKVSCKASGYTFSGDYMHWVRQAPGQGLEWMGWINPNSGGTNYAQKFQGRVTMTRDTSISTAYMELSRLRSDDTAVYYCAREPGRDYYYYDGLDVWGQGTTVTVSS
VL: B1 VL with T23I, S26A, Y33H, V45A, D94S
B8: El-B11 (E1 derived anti-c-Met antibody) (antibody, V domains shown)
VH: B1 VH with T24A, M34I, G101A, M110L
VL: B1 VL with T23I, V45A, P57I, D94S, Y100V, V101L
B9: El-BR1 (E1 derived anti-c-Met antibody) (antibody, V domains shown)
VH: B1 VH with T24A, Y27S, M34L, G101A, M110L
VL: B1 VL with T23L, S26A, V45A, D94S, Y100V, V101L
B10: El-B19 (E1 derived anti-c-Met antibody) (antibody, V domains shown)
VH: B1 VH with T24A, Y27F, M34I, M110L
VL: B1 VL with T23L, S26A, Y33H, V45A, D94S, Y100V, V101L
B11: El-A11 (E1 derived anti-c-Met antibody) (antibody, V domains shown)
VH: B1 VH with T24A, Y27F, M34I, G101A, M110L
VL: B1 VL with T23L, Y33H, V45A, P57I, D94S, V101L
B12: D6 anti-c-Met antibody in IgG format (antibody, V domains shown)
VH: QVQLQQWGAGLLKPSETLSLTCAVYGGSFSGYYWSWIRQPPGKGLEWIGEINHSGSTNYNPSLKSRVTISVDTSKNQFSLKLSSVTAADTAVYYCARGRDGYDFDPWGQGTLVTVSS
VL: QSVLTQPPSASGSPGQSVTISCTGTSSDVGGYNYVSWYQQHPGKAPKLMIYEVSKRPSGVPDRFSGSKSGNTASLTVSGLQAEDEADYYCSSYAGSNNLVVFGGGTQLTVL
B13: A2 (antibody, V domains shown)
VH: QVQLQESGPGLVKPSGTLSLTCAVSGGSISRSNWWSWVRQPPGKGLEWIGEVYHSGSTNYNPSLKSRVTISVDKSKNQFSLKVNSVTAADTAVYYCARDSDGGYYFDYWGQGTLVTVSS
VL: B4 VL with N33K, M49L, S54T, T62N, K68Q, A82T, R94T, S95D, S96N, S97G
B14: F3 anti-c-Met antibody in IgG format (antibody, V domains shown)
VH: QVQLVESGPGLVKPSGTLSLTCAVSGGSISSSNWWSWVRQPPGKGLEWIGEIYHSGSTNYNPSLKSRVTISVDKSKNQFSLKLSSVTAADTAVYYCARSAYGDYFLDYWGQGTLVTVSS
VL: B4 VL with L1Q, P2S, M49L, S54D, D55S, T62N, Y93F, R94T, A98T, L108V
B15: B12 anti-c-Met antibody in IgG format (antibody, V domains shown)
VH: QVQLVESGAEVKKPGASVKVSCKASGYTFTGYYMHWVRQAPGQGLEWMGWINPNSGNTGYAQKFQGRVTMTRNTSISTAYMELSSLRSEDTAVYYCARRGTTVSFDYWGQGTTVTVSS
VL: QAVLTQPPSVSGSPGQSITISCTGTSSDVGTFNLVSWYQQHPGKAPKLIIYEVSKRPSDVSPRYSGSKSGTTASLTISVLQTEDEADYYCCSYTTSSSYVFGIGTKVTVL
B16: A1-4 anti-c-Met antibody (antibody, V domains shown)
VH: B4 VH with I53S, N54S, D105Y, P108A
VL: B4 VL with N33P, D52V, K107Q
B17: A1-24 anti-c-Met antibody (antibody, V domains shown)
VH: B4 VH with I53S, N54T, K66E, G103S, P108A
VL: B4 VL with S27F, Y93F, S97A
B18: A1-8 (antibody, V domains shown)
VH: B4 VH with N54S, K66E, F106L, P108R
VL: B4 VL with N33P, D52R, S97A
B19: A1-9 anti-c-Met antibody (antibody, V domains shown)
VH: B4 VH with N54S, D105Y, F106L, P108Q
VL: B4 VL with D52N, Y93F
B20: A1-32 anti-c-Met antibody (antibody, V domains shown)
VH: B4 VH with I53S, N54T, K66D, D105Y, F106L, P108Q
VL: B4 VL with S27F, N33P, Y93F, S97A
B21: A1-2 anti-c-Met antibody (antibody, V domains shown)
VH: B4 VH with I53S, N54T, P108A
VL: B4 VL with S27F, Y93F
B22: A1-6 anti-c-Met antibody (antibody, V domains shown)
VH: B4 VH with N54T, F106I, P108A
VL: B4 VL with S27W, N33P, S96V

Positions count from the first letter of the chain named.

The target of one assay is T1, recombinant c-Met extracellular domain …. Nature of the assay: Octet Red (BLI). (In general: BLI is a label-free optical method that tracks binding on a fibre tip over time.)
B1: the dissociation constant (Kd) came to 4.5 nM.

As to B2, the Kd amounted to 0.8 nM.

Another assay has the same target. Nature of the assay: Octet Red (BLI). This is another data set of the same source.
Regarding B3, the dissociation constant Kd came out at 1.5 nM.

For the molecule B4, the dissociation constant (Kd) worked out at 0.8 nM.

A further assay has the same target. Nature of the assay: Biacore SPR. A general note: SPR reads the build-up and loss of mass on a sensor chip optically.
B1: the equilibrium dissociation constant (Kd) was found to be 18.6 nM.

For the molecule B4, the Kd is 1.98 nM.

The next assay shares this target. Nature of the assay: ELISA, blocking of HGF binding to c-Met.
Regarding B1, the half-maximal inhibitory concentration (IC50) was found to be 3.18 nM.

For the molecule B5, the IC50 came to 2.61 nM.

For B6, the half-maximal inhibitory concentration (IC50) came out at 2.31 nM.

Consider B7, for which the IC50 was found to be 2.69 nM.

Regarding B8, the IC50 was found to be 2.98 nM.

In the case of B9, the concentration for half-maximal inhibition (IC50) was 3.11 nM.

As for B10, the IC50 worked out at 2.63 nM.

As for B11, the IC50 came to 2.26 nM.

The next assay shares this target. Nature of the assay: Octet Red (BLI). This is another data set of the same source.
For B12, the Kd amounted to 1.9 nM.

As for B13, the Kd worked out at 2.2 nM.

The next assay has the same target. As to the kind of experiment: Octet Red (BLI). This is another data set of the same source.
Consider B14, for which the dissociation constant Kd is 0.7 nM.

As for B15, the equilibrium dissociation constant (Kd) was determined as 0.15 nM.

The next assay has the same target. As to the kind of experiment: ELISA, blocking of HGF binding to c-Met. This is another data set of the same source. For orientation: ELISA stands for enzyme-linked immunosorbent assay.
B16: the half-inhibitory concentration (IC50) is 1.44 nM.

Consider B17, for which the IC50 worked out at 1.52 nM.

On to B18, for which the IC50 stood at 1.14 nM.

With B19, the half-maximal inhibitory concentration (IC50) worked out at 1.72 nM.

As for B20, the concentration for half-maximal inhibition (IC50) was 0.91 nM.

Consider B21, for which the half-maximal inhibitory concentration (IC50) is 1.22 nM.

Take B4: the IC50 worked out at 1.73 nM.

As for B22, the IC50 turned out to be 1.34 nM.

The next assay shares this target. Nature of the assay: Biacore SPR. The source holds these as a separate data set.
Regarding B1, the Ka came out at 5.37e+07 M⁻¹.

For B4, the Ka is 5.3e+08 M⁻¹.

One may read the Kd as a measure of binding affinity in units of concentration. A word on the IC50: it is the concentration that inhibits the measured activity by half.
